Assay: yeast display, Sf9 membrane polyspecificity reagent, FACS + sequencing; frameworks hold sequencing errors
Procedure, shortened: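 A synthetic nanobody library was expressed on Saccharomyces cerevisiae BJ5465 by galactose induction for 36–48 hours. The library was stained for 1 hour at 4 °C with 10% biotinylated, detergent-solubilized Sf9 membrane reagent and enriched with streptavidin microbeads before FACS. Low and high (top ~1%) gates were set on anti-HA fluorescence for expression and streptavidin fluorescence for reagent binding, and each polyreactivity label reflects the gate of origin.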

Q: For “QVQLVESGGGLVQAGGSLRLSCAASGLTFRFYTMGWDRQAPGKERELVAAISTSGGSTYYADSVKGRFTISRDNAKNTVYLQMNSLKPEDTAVYYCNAVYALNGYDYWGQGTQVTVSS”, which “polyreactivity (PSR sort gate)” value is on record?
A: low polyreactivity

Q: Which “polyreactivity (PSR sort gate)” value does the source give for “QVQLVESGGGLVQAGGSLRLSCAASGLTFRGYAMGWYRQAPGKERELVAAITSSAGRTYYADSVKGRFTISRDNAKNTVYLQMNSLKPEDTAVYYCAAEYASWFGSMNYWGQGTQVTVSS” here?
A: high polyreactivity

Q: For “QVQLVESGGGLVQAGGSLRLSCAASGLTFRPNAMGWYRQAPGKERELVAAISWSGRTYYADSVKGRFTISRDNAKNTVYLQMNILKPEDTAVYYCAARGYSDRYGYWGQGTQVTVSS”, which “polyreactivity (PSR sort gate)” value is on record?
A: high polyreactivity

Q: With “QVQLVESGGGLVQAGGSLRLSCAASGLTFRRNTMGWYRQAPGKERELVATITSGGSTNYADSVKGRFTISRDNAKNTVYLQMNSLKPEDTAVYYCAARTTYITTWVYRHTYTYYYWGQGTQVTVSS” as the sequence, how does the “polyreactivity (PSR sort gate)” value read?
A: high polyreactivity

Q: Which “polyreactivity (PSR sort gate)” value does the source give for “QVQLVESGGGLVQAGGSLRLSCAASGLTFRRYAMGWYRQAPGKERELVAGISRGGSTYYADSVKGRFTISRDNAKNTVYLQMNRLKPEDTAVYYCAAYNSGTYPVQPVPYDMDYWGQGTQVTVSS” here?
A: low polyreactivity

Q: With “QVQLVESGGGLVQAGGSLRLSCAASGLTFRVNDMGWYRQAPGKERELVATISSGGSTYYADSVKGRFTISRDNAKNTVYLQMNSLKPEDTAVYYCATNSEGQESNSYYVWMGYWGQGTQVTVSS” as the sequence, how does the “polyreactivity (PSR sort gate)” value read?
A: low polyreactivity

Q: For “QVQLVESGGGLVQAGGSLRLSCAASGLTFRVYAMGWYRQEPGKERELVASISRTGSTTYADSVKGRFTISRDNAKNTVYLQMNSLKPEDTAVYYCNARYYVLLWDSLAREYWGQGTQVTVSS”, which “polyreactivity (PSR sort gate)” value is on record?
A: high polyreactivity

Q: With “QVQLVESGGGLVQAGGSLRLSCAASGLTFRYNAMGWYRQATGKERELVARISRNGGRTYYADSVKGRFTISRDNAKNTVYLQMNSLKPEDTAVYYCNVVYFVTTSPGYDYWGQGTQVTVSS” as the sequence, how does the “polyreactivity (PSR sort gate)” value read?
A: high polyreactivity

Q: With “QVQLVESGGGLVQAGGSLRLSCAASGLTFRYYAMGWYRQAPGKERELVAAISRSGGSTYYADSVKGRFTISRDNAKNTVYLQMNSLKPEDTAVYYCAAGRRGGKQGGTRGGDYWGQGTQVTVSS” as the sequence, how does the “polyreactivity (PSR sort gate)” value read?
A: high polyreactivity

Q: Which “polyreactivity (PSR sort gate)” value does the source give for “QVQLVESGGGLVQAGGSLRLSCAASGLTFRYYTMGWYRQAPGKERELVAAITKSGSSTYYADSVKGRFTISRDNAKNTVYLQMNSLKPEDTAVYYCAKDSNHWGQGTQVTVSS” here?
A: high polyreactivity

Q: For “QVQLVESGGGLVQAGGSLRLSCAASGLTFSDYAIGWYRQAPGKEREFVAAITRNGGSTRYADSVKGRFTFSRDNAKNTVYLKMNRLKPEDTAVYYCATDVGFGRKQRPHRPGYGYWGQGTQVTVSS”, which “polyreactivity (PSR sort gate)” value is on record?
A: low polyreactivity

Q: With “QVQLVESGGGLVQAGGSLRLSCAASGLTFSHYAMGWYRQAPRKERELVAGISSRGGNTYYADSVKGRFTISRDNAKNTVYLQMNSLKPEDTAVYYCNAPKPKRAYDYWGQGTQVTVSS” as the sequence, how does the “polyreactivity (PSR sort gate)” value read?
A: high polyreactivity

Q: Which “polyreactivity (PSR sort gate)” value does the source give for “QVQLVESGGGLVQAGGSLRLSCAASGLTFSIYAMGWYRQAPGKERELVASITSSGGSTYYADSVKGRFTISRDNAKNTVYLQMNSLKPEDTAVYYCATGRSRDYDYWGQGTQVTVSS” here?
A: high polyreactivity

Q: Which “polyreactivity (PSR sort gate)” value does the source give for “QVQLVESGGGLVQAGGSLRLSCAASGLTFSKNAMGWYRQAPGKEREVVATISYSSYRTNYADSVKGRFTISRDNANNPVYLQMNSLKPEDTAVYYCAARVSKGWPTHYDYWGQGTQVTVSS” here?
A: high polyreactivity

Q: With “QVQLVESGGGLVQAGGSLRLSCAASGLTFSKYAMGWYRQAPGQERELVAAITRGDRTYSADSVKGRFTISRDNAKNTVYLQMNSLKPEDTAVYYCAARQYYWGQGTQVTVSS” as the sequence, how does the “polyreactivity (PSR sort gate)” value read?
A: high polyreactivity

Q: Which “polyreactivity (PSR sort gate)” value does the source give for “QVQLVESGGGLVQAGGSLRLSCAASGLTFSLYAMGWYRQAPGKERELVAAISWTGGSTYYADSVKGRFTISRDNAKNTVYLQMNSLKPEDTAVYYCNARYTLFARYCYDYWGQGPQVTVSS” here?
A: low polyreactivity

Q: Which “polyreactivity (PSR sort gate)” value does the source give for “QVQLVESGGGLVQAGGSLRLSCAASGLTFSRYAMGWYRQAPGKERELVAAITSIGGSTYYADSVKGRFTISRDNAKNTVYLQMNSLKPEDTAVYYCRAFFRRDYWGQGTQVTVSS” here?
A: high polyreactivity

Q: With “QVQLVESGGGLVQAGGSLRLSCAASGLTFSRYAMGWYRQAPGKERELVAAITWSGSSTYYADSVKGRFTISRDNAKNTVYLQMNILKQEDTAVYYCAARYGYSRGPYYRSDYWGQGTQVTVSS” as the sequence, how does the “polyreactivity (PSR sort gate)” value read?
A: high polyreactivity

Q: With “QVQLVESGGGLVQAGGSLRLSCAASGLTFSTYAMGWYRQAPGKERELVAVIRRTGSTYYADSVKGRFTISRDNAKNTVYLQMNSLKPEDTAVYYCATARRHVSGYDYWGQGTQVTVSS” as the sequence, how does the “polyreactivity (PSR sort gate)” value read?
A: high polyreactivity

Q: With “QVQLVESGGGLVQAGGSLRLSCAASGLTFSWYAMGWYRQAPGKEREFVATISASGGSTYYADSVKGRFTISRDNAKNTVYLQMNSLKPEDTAVYYCNAIYFRYRNGGYDYWGQGTQVTVSS” as the sequence, how does the “polyreactivity (PSR sort gate)” value read?
A: high polyreactivity

Q: With “QVQLVESGGGLVQAGGSLRLSCAASGLTFTINAMGWYRQAPGKERELVAAITGNNTSTYYADSVKGRFTISRDNAKNTVYLQMNSLKPEDTAVYYCAASVYHYGPLYYWGQGTQVTVSS” as the sequence, how does the “polyreactivity (PSR sort gate)” value read?
A: low polyreactivity

Q: With “QVQLVESGGGLVQAGGSLRLSCAASGLTFTLNAMGRYRQATGKERELVATISQDGGGTTYADSVKGRFTISRDNAKNTVYLQMNSLKPEDTAVYYCATTLPPSVWGEWSGTRYPYDYWGQGTQVTVSS” as the sequence, how does the “polyreactivity (PSR sort gate)” value read?
A: low polyreactivity

Q: For “QVQLVESGGGLVQAGGSLRLSCAASGLTFTNYAMGWYRQAPGKELELVAAISSSGSDTYYADSVKGRFTISRDNAKNTVYLQMNSLKPEDTAVYYCAAVLTALSPDFEYEYWGQGTQVTVSS”, which “polyreactivity (PSR sort gate)” value is on record?
A: low polyreactivity

Q: Which “polyreactivity (PSR sort gate)” value does the source give for “QVQLVESGGGLVQAGGSLRLSCAASGLTFTQYAMGWYRQAPGKERELVAAITSGGRTYYADSVKGRFTISRDNAKNTVYLQMNSLKPEDTAVYYCAADRRYVDAYHFGYWGQGTQVTVSS” here?
A: high polyreactivity

Q: Which “polyreactivity (PSR sort gate)” value does the source give for “QVQLVESGGGLVQAGGSLRLSCAASGLTFTTYAMGWYIPAPGKDRELVSAINYRGTSSYYADSVKGRFTISRDNAKKTVYLQINSLKPEDTAVYYCNARQTRSSRINYAEGIYNFWGQGTQVTVSS” here?
A: high polyreactivity

Q: With “QVQLVESGGGLVQAGGSLRLSCAASGLTFTVNAMGWYRQAPGKERELVARIRNSGGRTYYADSVKGRFTISRDNAKNTVYLQMNSLKPEDTAVYYCAARRYYYQVGYDYWGQGTQVTVSS” as the sequence, how does the “polyreactivity (PSR sort gate)” value read?
A: high polyreactivity

Q: Which “polyreactivity (PSR sort gate)” value does the source give for “QVQLVESGGGLVQAGGSLRLSCAASGLTFTVYTMVWYRQAPGKERELVATNSWSDGRTYYADSVKGRFTISRDNAKNTVYLQMNSVKPEDTAVYYCATESITWYYFKHEYWGQGTQVTVSS” here?
A: high polyreactivity

Q: Which “polyreactivity (PSR sort gate)” value does the source give for “QVQLVESGGGLVQAGGSLRLSCAASGLTFVANAMGWYSQAPGKERELVARISSSGGSTYYADSVKGRFTISRDNAKNTVYLQMNSLKPEDTAVYYCASSQSGGYDYWGQGTQVTVSS” here?
A: high polyreactivity

Q: With “QVQLVESGGGLVQAGGSLRLSCAASGLTFVDYAMGWYRQAPGKERELVAAITSSGGSITYYADSVKGRFTISRDNAKNTVYSQMNSLKPEDTAVYYCNADYGIYTDSFRGPDYESWGQGTQVTVSS” as the sequence, how does the “polyreactivity (PSR sort gate)” value read?
A: low polyreactivity

Q: For “QVQLVESGGGLVQAGGSLRLSCAASGLTFVNSTMGWYRQAPGKEWEFVAAITSSGGSSTYYADSVKGRFTISRDNAKNTVYLQMNSLKPEDTAVYDCAAGFSRYVDIVILTVYTGDYWGQGTQVTVSS”, which “polyreactivity (PSR sort gate)” value is on record?
A: low polyreactivity

Q: Which “polyreactivity (PSR sort gate)” value does the source give for “QVQLVESGGGLVQAGGSLRLSCAASGLTFVRYAMGWYRQAPGKERELVAAITTRGGSTYYADSVKGRFTISRDNAKNTVYLQMNSLKPEDTAVFYCNADRVTSSSVRYDYWGQGTQVTVSS” here?
A: high polyreactivity

Q: For “QVQLVESGGGLVQAGGSLRLSCAASGLTFVSYAMGWYRQAPGKERELVAAISYGGGSTNYADSVKGRFTISRDNAKNTVDLQMNSLKPEDTAVYYCAAEPGYYDEYGYWGQGTQVTVSS”, which “polyreactivity (PSR sort gate)” value is on record?
A: low polyreactivity

Q: For “QVQLVESGGGLVQAGGSLRLSCAASGLTFVYNDMGWYRQAPGKERELVAGITSGGSTSYADSVKGRFTISRDNAKNTVYLQMNSLKPEDTAVYYCAAGVYALRRDYWGQGTQVTVSS”, which “polyreactivity (PSR sort gate)” value is on record?
A: low polyreactivity

Q: Which “polyreactivity (PSR sort gate)” value does the source give for “QVQLVESGGGLVQAGGSLRLSCAASGLTFVYNDMGWYRQAPGKERELVAGITSGGSTYYADSVKGRFTISRDNAKNTVYLQMNSLKPEDTAVYYCAADGLSTDLFRPDSIVDYWGQGTQVTVSS” here?
A: low polyreactivity

Q: Which “polyreactivity (PSR sort gate)” value does the source give for “QVQLVESGGGLVQAGGSLRLSCAASGLTFVYYAMGWFRQAPGKERELVAAISRGGTTYYADSVKGRFTISRDNAKNTVYLQMNSLKPEETAVYYCNAARYGFGSAYDYWGQGTQGTVSS” here?
A: high polyreactivity

Q: Which “polyreactivity (PSR sort gate)” value does the source give for “QVQLVESGGGLVQAGGSLRLSCAASGLTFVYYAMGWYRQAPGKERELVAAISSGGSTYYADSVKGRFTISRDNAKNTVYLQMNSLKPEDTAVYYCAATYSSFRRYPGAHYRFGYWGQGTQVTVSS” here?
A: high polyreactivity

Q: For “QVQLVESGGGLVQAGGSLRLSCAASGLTFVYYAMGWYRQAPGKERELVASIDYSGSSTYYADSVKGRFTISRDNSKNTVYLQMNSLKPEDTAVYYCAATDSGEYWGQGTQVTVSS”, which “polyreactivity (PSR sort gate)” value is on record?
A: low polyreactivity

Q: Which “polyreactivity (PSR sort gate)” value does the source give for “QVQLVESGGGLVQAGGSLRLSCAASGLTFWANTMGWCRQAPGKEREFVAAITWSGGSTYYADSVKGRFTISRDNAKNTVNLQMNSLKPEDTAVYYCAADEDFAAGYSYYYWGQGSQVTVSS” here?
A: low polyreactivity

Q: Which “polyreactivity (PSR sort gate)” value does the source give for “QVQLVESGGGLVQAGGSLRLSCAASGLTFWAYAMGWYRQAPGKEREFVAAISWSGDSTYYADSVKGRFTISRDNAKNTVYLQMNSLKPEDTAVYYCAAEWYYVYIAPYDYWGQGTQVTVSS” here?
A: low polyreactivity

Q: Which “polyreactivity (PSR sort gate)” value does the source give for “QVQLVESGGGLVQAGGSLRLSCAASGLTFWGYAMGWYRQAPGKEREFVASISSGGGSTYYADSVKGRFTMSRDNAKNTVYLQMNSLKPEDTAVYYCNAYRTKYRNQYTYATFDYWGQGTQVTVSS” here?
A: low polyreactivity

Q: With “QVQLVESGGGLVQAGGSLRLSCAASGLTFWSYAMGWYRQAPGKERELVAAISSGGRTYYADSVKGRFTISRDNAKNTVYLQMNSLKPEDTAVYYCNARSRRGPTKDDYWGQGTQVTVSS” as the sequence, how does the “polyreactivity (PSR sort gate)” value read?
A: high polyreactivity

Q: Which “polyreactivity (PSR sort gate)” value does the source give for “QVQLVESGGGLVQAGGSLRLSCAASGLTFYAYAMGWYRQAPGKERELVAAISSRGGRTYYADSVKGRFTISRDNAKNTVYLQMNRLKPEDTAVYYCAARIYRYDTTVVPRYDYWGQGTQVTVSS” here?
A: high polyreactivity

Q: For “QVQLVESGGGLVQAGGSLRLSCAASGLTFYAYAMGWYRQAPGKERELVAHISWTGTTTYYADSVKGRFTISRDNAKNTVYLQMNSLKPEDTAVYYCAALIYRYAVAPPGYQYWLYYWGQGTLVTVSS”, which “polyreactivity (PSR sort gate)” value is on record?
A: low polyreactivity
